Data reported in the nanobody polyreactivity screen of Harvey et al. (2022).

Experiment: yeast display, Sf9 membrane polyspecificity reagent, FACS + sequencing; frameworks hold sequencing errors
Outline: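 In a synthetic yeast display library (Saccharomyces cerevisiae BJ5465), nanobody expression was induced with galactose for 36–48 hours. FACS gates were set low and high (top ~1%) using anti-HA fluorescence for expression and streptavidin fluorescence for binding of the Sf9 membrane reagent. Each polyreactivity label is drawn from the gate of origin.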

Row | Sequence | polyreactivity (PSR sort gate)
1 | QVQLVESGGGLVQAGGSLRLSCAASGRIFTGNAMGWYRQAPGKERELVAAITGRGGNTYYADSVKGRFTISRDNAKNTVYLQMNSLKPEDTAVYYCAKVFFHTPIVPEFEYWGQGTQVTVSS | low polyreactivity
2 | QVQLVESGGGLVQAGGSLRLSCAATGIISQYYAMGWYRQQPGKESELDAAISRSGGSTFYADSVKGRFTISRDNAQNTVYLQMNSLKPEDTAVYYCNAESRFRPYTSRYDYWGQGTQVTVSS | high polyreactivity
3 | QVQLVESGGGLVQAGGSLRLSCAASGYIFYGYVMGWYRQAPGKERELVAGITYSGGGGTHYADSVKGRFTISRDNAKNTVYLQMNSLKPEDTAVYYCATADPQLNRTYYSYGMDYWGQGTQVTVSS | low polyreactivity
4 | QVQLVESGGGLVQAGGSLRLSCAASGRTFRYYAMGWYRQAPGKEREFVAAITSRSSRTYYADSVKGRFTISRDTAKNTVYLQMNSLKPEDTAVYYCARGSELGYYAWVYYWGQGTQVTVSS | high polyreactivity
5 | QVLLVESGGGLVQAGGSLRLSCAASGFTFNRYDMVWYRQAPGTEREKVARITRGGSTKYADSVKGRFTISRDNAKNTVYLQMKSLKPEDTPVSYCAAGPVKRYVVQGNYWGQGTQVTVSS | high polyreactivity
6 | QVQLVESGAGLVQAPGSLRLSCAASGRTFPRNAMGRYRQAPGKERDLVATISLSGGSTYYADSVKGRFTISRDNAKNTVYLQMNSLKPEDSADYYCARTRNPWPTSFDYWGQGTQVTVSS | low polyreactivity
7 | QVQLVESGGGLVQAGGSLRLSCAASGFILSVYAMGWYRQAPGTETELVAAISKRGGSTNYADSVKGRFTISRDNAKDTVYLQMNSLKPEDTAVYYCAKARAGFLYDHWGQGTQVTVSS | high polyreactivity
8 | QVQLVESGGGLVQAGGSLRLSCAASGRTLVKYAMGWYRQAPGKERELVAAISSGGGTYYADSVKGRFTISRDNAKNTVYLQMNSLKPEDTAVYYCATPYYRRYAAPGYDYWGQGTQVTVSS | low polyreactivity
9 | QVQLVESGGGLVQAGGSLRLSCAASGSYFTYNRMGRYRQAPGKEREFVAANTWTGGSTYADSVKGRFTISRDNAKYTVYLQMNSLKPEDTAVYYCAAVRRFSWYTPVTTRRYYYWGQGTQVTVSS | high polyreactivity
10 | QVQLVESGGGLVQAGGSLRLSCAASGRILSHYAMGWYRQAPGKERELVASISGSDGSTYYADSVKGRFTISRDNAKNTVYLQMNSLKPEDTAVYYCAVDSYQTGVYFYYVYWDFDLGYWGQGTQVTVSS | low polyreactivity
11 | QVQLVESGGGLVQAGGSLRLSCAASGSIFEWYAMGWYRQAPGKERELVADISSLGSTYYADSVKGRFTISRDNAKNTVYLQMNSLKPEDTAVYYCNTSYIIWYDSWGQGTQVTVSS | low polyreactivity
12 | QVQLVESGGGLVQAGGSLRLSCAASGRTLGRYAMGWYRHAPGKERELVADISFRGGSTYYADSVKGRFTISRDNAKNTVYLQMNSLKPVDTAVYYCAAVPGPASKYGYWGQGTQVTVSS | high polyreactivity
13 | QVQLGDSGGGLVQAGGSLRLSCAASGFNFRTNTMGWYRQEPGKERELVAAITRSGGSTYYADSVKGRFTISSDNAKYTVYLQMNSLKPEDSAVYYCAKEYRRVVADFGYWGQGTQVTVSS | high polyreactivity
14 | QVQLVESGGGLVQAGGSLRLSCAASGRIFKYNAMGWYRQAPGKERELVAVISFSGGSTYYADSVKGRFTISRDNAKNTVYLQMNSLKPEDTAVYYCNVRQHYSRRLKKWQMDCWGQGTQVTVSS | high polyreactivity
15 | QVQLVESGGGLVQAGGSLGLSCAASGSTLYGNAMGWYRQAPGKERELVAAINTGGSTNYADSVKGRFTISRDNAKNTVYVQMNSLKPEDTAVYYCAADYEWDATHDYWGQGTQVTVSS | low polyreactivity
16 | QVQLVESGGGLVQAGGSLRLSCAASGSTFGPYALGWYRQAPGKERELVAAIDKSGGSTYYADSVKGRFTISRDNAKNTVYLQMNSLKPEDTAVYYCAADMLRYFGYYDYDSWGQGTQVTVSS | low polyreactivity
17 | QVQLVESGGGLVQAGGSLRLSCAASGFIFYQYAMGWYRQAPGKERELVAAISRSGGSTYYADSVKGRFTISRDNAKNTVYLQMNSLKPEDTAVYYCNAVYRSIRPRYDYWGQGTQVTVSS | high polyreactivity
18 | QVQLVESGGGLVQAGGSLRLSRAASGSTFSGYTMGWYRQAPGKERELVAAISTSGGRTSYADSVKGRFTISRDNAKTSVYLQMNSLKPEDTAVYYCAARRWERRVRPGYYPYDYWGQGTQVTVSS | high polyreactivity
19 | QVQLVESGGGLVQAGGSLRLSCAASGSLFSGNAMGWYRQAPGKEREFVAAISRSGSSTYYADSVKGRFTISRDNAKNPVYLQMNSLKPEDTAVYYCASRFGDMGYWGQGTQVTVSS | high polyreactivity
20 | QVQLVESGGGLVQSGGSLRLSCAASGNTFHSNAMGWYRQAPGKERELVAAITPSDGDTYYADSVKGRFTISRDNAKNTVYLQMNSLKPEDTAVYYCNARKQVYKIYYSDYRRYDYWGQGTQVTVSS | low polyreactivity
21 | QVQLVESGGGLVQAGGSLRLSCAASGIIFHFNDMGWYRQAPGKERELVAAITSGGSTNYADSVKGRFTISRDNAKNTVYLQMNSLKPEDTAVYYCAARRGLRLFAYRHGYWGQGTQVTVSS | low polyreactivity
22 | QVQLVESGGGLVQAGGSLRLSCAASGRTFHYYAMGWYRQAPGKERELVAGITGGGSTYYADSVKGRFTISRDNAKNTVYLQMNSLKPEDTAVYYCNARPYWFGSYGYWGQGTQVTVSS | low polyreactivity

Row | Sequence | polyreactivity (PSR sort gate)
23 | QVQRVESGGGLVQAGGSRRLTCAASGRTSVPYARGWYRQAPGKERELVAAITSGGSTYYADSVKGRFTISRDNAKNTVYLQMNSLKPEDTAVYYCAASLPHSAPYTASYGSWGQGTQVTVSS | low polyreactivity
24 | QVQLVESGGGLVQAGGSLRLSCAASGIIFRANAMGWYRQAPGKERELDAAISGRGSSTTYADSVKGRFTISRDNAKNTVYLQINSLKPEDTAVYYCAARLPYNNQVPGYYWGQGTQVTGSS | high polyreactivity
25 | QVQLVESGGGLVQAGGILRLSCAASGFTFSWYAMGWYRQAPGKERELVAAINADGGTTYYADSVKGRFTISRDNAKNTVYLQMNSLKPEDTAVYYCAAELSVDKYDYWGQGTQVTVSS | low polyreactivity
26 | QVQLVESGGGLVQAGGRLRLSCAASGGTFYLIAMGWYIQAPGKERELVAAISGSGTSTYYADSVKGRFTISRDNAKNTVYLQMNSLKPEDTAVYYCAADGTYFYIYLGDRFDYWGQGTQVTVSS | low polyreactivity
27 | QVQLVESGGGLVQAGGSLRLSCAASGSIFRYNTMGWYRQAPGKERELVARISSGGSTYYADSVKGRFTISRDNAKNTVYLQMNSLKPEDTAVYYCAAVSRHRGWDRYYWGQGTQVTVSS | high polyreactivity
28 | QVQLVESGGGLVQAGGSLRLSCAASGFIFSYYAMGWYRQAPVKERELVAAISSSGGTTYADSVKGRFTISRDNAKNTFYLQMNSLKPEDTAVYYCARVQYWFYKPMYYWGQGTQVTVSS | high polyreactivity
29 | QVQLVESGGGLVQAGRSLRLSCAASGRTFPPYDMGWYRQAPGKERELVAAITSDGSTSYADSVKGRFTISRDNAKNTVYLQMNRLKPEDTAVYYCNAEYGYSFGYGYYWWFDYWGQGTQVTVSA | high polyreactivity
30 | QVQLVESGGGLVQAGGSLRLSCAASGRIFPYKDMGWSRQAHGKEMELVAGISYSGGSTYYADSVKGRFTISRDNAKNTVYLQMNSLKPEDTAVYYCARDYSRHKGDYWGQGTQVTVSS | low polyreactivity
31 | QVQLVESGGGLVQAGGSLRLSCAASGSTFETNAMGWYRQAPGTERELVAAIRWSTGNTYYADSVKGRFTISRDNAKNTVYLQMNSLKPEDTAVYYCAAYKGKHYNEGYWGQGTQVTVSS | low polyreactivity
32 | QVQLVESGGGLVQAGGSLRLSCAASGSIITWNAMGWYRQAPGKERELVAALDWDGGSTYYADSVKGRFTISRDNAKNTVYFQMNRLKPEDTAVYYCAATYGWYTGRYPSGHYYYWGQGTQVTVSS | low polyreactivity
33 | QVQLVESGGGLVQAGGSLRLSCAASGITFYYYAMGWYRQAPGKERELVAAISWSGGRTYYADSVKGRFTISRDNAKNTVYLQMNSLKPEDTAVYYCAAGYYLYHFVSLYGGDYWGQGTQVTVSS | high polyreactivity
34 | QVQLVESGGGLVQAGGTLRLSCAASGRIFPAYVMGWYRQAPGKERELVATIDNGGGTYYADSVKGRFTISRDNAKNTVYLQMNSLKPEDTAVYYCARDRHVRWGLKMDYWGQGTQVTVSS | low polyreactivity
35 | QVQLVESGGGLVQAGGSLRLSCAASGRTFPYYAMGWYRQAPGKERELVAAINGRGGSTYYSDSVKGRFTISRDNAKNTVYLQMNSLKPEDTAVYYCAARYESRYSRYGYWGQGTQVTVSS | high polyreactivity
36 | QVQLVESGGGLVQAGGSLRLSCAASGNTFYFYAMGWYRQAPGKERELVASITRRGGSTYYADSVKGRFTISRDNAKNTVYLQMNSLKPEDTAVYYCARYPARYGGYYDYDYWGQGTQVTVSS | high polyreactivity
37 | QVQLVESGGGLVQAGGSLRLSCAASGITFTDYAMGWYRPAPGKERELVAAISSRGGSTYYADSVKGRFTISRDHAKNTVYLQMNSLKPEDTAVYYCNARFVRRGSGYDYWGQGTQVTLSS | high polyreactivity
38 | QVQLVESGGGLVQAGGSLRLSCAASGLIFAQYAMGWYRQAPGKEREFVAAISYSGGNTYYADSVKGRFTISRDNAKNTVYLQMNSLKPEDTAVYYCAADYYWYHYAGWVGQYGYWGQGTQVTVSS | low polyreactivity
39 | QVQLVESGGALVQAGGSLRLSCAASGRILRGNAMGWYRPAPGKERELVADINYSDGSTYYADSVKGRFTISRDNAKNTVYLQMNSLKPEDTAVYYCAKKNPLVFTSGMDYWGQGTQVTVSS | low polyreactivity
40 | QVQLVESGGGLVQAGGSLRLSCAASGRIFVSYTMGWYRQAPGKERELVAAIRGTGSTYYADSVKGRFTISRDNAKNTVYLQMNSLKPEDTAVYYCNADYLRWDIWYWHGYDYWGQGTQVTVSS | high polyreactivity
41 | QVQLVESGGGLVQAGGSLRLSCAASGSIFDVYTMGWYRQAPGKDRELVAAINTGGGSTYYADSVKGRFTISRDNAKNTVYLQMNSLKPEDTAVYYCARSRYREWGQGTQVTVSS | low polyreactivity
42 | QVQLVDSGGGLVQAGGSLRLICAASGSTFARNTMGWYRQAPGKETELVAVISRGDSTYYADSVKGRFTISRDNAKNSVYLQMNSLKPEDTAVNYCIAYLRYAYPSKMDYWGQGTQVTVSS | low polyreactivity
43 | QVQLVESGGGLVQAGGSLRLSCAGSGRIFTQYAMGWYGQAPGKERELVAAINASDGSTYADSVKGRFTISRDNAKNTVYLQMNSLKPEDTAVYYCNVTGGPYDFTRWSEFDHWGQGTQVTVSS | low polyreactivity
